Experimental findings from US20190144544A1 (Eli Lilly, published 2019) are described below.

One test deals with cell surface PD-L1 (human, UniProt Q9NZQ7 19-290). Put plainly: cell-based or functional assay.
The next test addresses T1, human PD-L1 monomer (human, UniProt Q9NZQ7 19-238, limits assumed).
T1 construct: Amine-coupled to the sensor chip; also called hPD-L1 monomer; hPD-L1
Put plainly: SPR (Biacore T200) at 20, 25, 37 and 42 °C, Fab as analyte over immobilised human PD-L1 monomer; van't Hoff analysis of the association phase.

Sequence of cell surface PD-L1 (Q9NZQ7 19-290 limits assumed): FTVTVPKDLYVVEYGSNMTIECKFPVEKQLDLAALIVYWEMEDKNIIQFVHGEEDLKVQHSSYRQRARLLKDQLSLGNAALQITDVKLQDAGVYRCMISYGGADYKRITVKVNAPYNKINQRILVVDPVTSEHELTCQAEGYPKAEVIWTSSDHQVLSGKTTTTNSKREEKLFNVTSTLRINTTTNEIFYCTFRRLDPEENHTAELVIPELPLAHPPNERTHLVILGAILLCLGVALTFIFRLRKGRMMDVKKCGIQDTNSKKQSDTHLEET
T1 sequence (Q9NZQ7 19-238 limits assumed): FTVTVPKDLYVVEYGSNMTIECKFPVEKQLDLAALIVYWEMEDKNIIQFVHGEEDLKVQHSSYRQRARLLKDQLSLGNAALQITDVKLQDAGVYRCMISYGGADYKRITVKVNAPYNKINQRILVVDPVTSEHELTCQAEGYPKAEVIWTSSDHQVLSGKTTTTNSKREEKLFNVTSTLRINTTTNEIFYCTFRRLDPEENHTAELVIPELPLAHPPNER
Protocol for human PD-L1 monomer: The sample gradients are prepared in the running buffer HBS-EP (0.01M HEPES pH 7.4, 0.15M NaCl, 3 mM EDTA, 0.005% v/v surfactant P20). The binding experiments are repeated at four different temperatures: 20° C., 25° C., 37° C. and 42° C. Throughout the kinetics experiments, the flow rate is maintained at 30 μl/min and the association/contact time at 180 sec for all three Fabs. […] After dissociation, a 0.75 M NaCl, 25 mM NaOH solution regenerates the immobilized hPD-L1, and then the surface is stabilized for 30 sec with the running buffer. […] The binding kinetics are analyzed using the Biacore T200 Evaluation software (Version 3.0). Data is referenced to a blank flow cell, and the data is fitted to the 1:1 Langmuir binding model.
Steady-state, association, and dissociation are the three binding phases analyzed. MATLAB is utilized for the linear regression analysis.

B1: Antibody A (antibody, human IgG1, lambda, V domains shown)
VH: QVQLVQSGAEVKKPGSSVKVSCKASGGTFSSYAISWVRQAPGQGLEWMGGIIPIFGTANYAQKFQGRVTITADKSTSTAYMELSSLRSEDTAVYYCARSPDYSPYYYYGMDVWGQGTTVTVSS
VL: QSVLTQPPSASGTPGQRVTISCSGSSSNIGSNTVNWYQQLPGTAPKLLIYGNSNRPSGVPDRFSGSKSGTSASLAISGLQSEDEADYYCQSYDSSLSGSVFGGGIKLTVLG
On to B1, for which, in the test with cell surface PD-L1, the “IFN-γ secretion fold change vs. IgG control, mixed lymphocyte reaction, 0.01 nM antibody” value was 1.25 fold; the “IFN-γ secretion fold change vs. IgG control, mixed lymphocyte reaction, 0.05 nM antibody” value amounted to 1.95 fold; the “IFN-γ secretion fold change vs. IgG control, mixed lymphocyte reaction, 0.27 nM antibody” value was 2.68 fold; the “IFN-γ secretion fold change vs. IgG control, mixed lymphocyte reaction, 1.3 nM antibody” value is 4.13 fold. Also, in the test with cell surface PD-L1, the “IFN-γ secretion fold change vs. IgG control, mixed lymphocyte reaction, 6.7 nM antibody” value stood at 4.11 fold and the “IFN-γ secretion fold change vs. IgG control, mixed lymphocyte reaction, 33.3 nM antibody” value was 5.71 fold.

B2: Antibody A-Fab (Fab, V domains shown)
VH: B1 VH
VL: B1 VL
notes: CH1 and the lambda constant domain are not specified for the Fab; also called Fab of Antibody A
With B2, the ΔSon in the test with human PD-L1 monomer was -26.
